Source: patent publication US6730503B1 (Roche Vitamins Inc., priority 1996, dated 2004)
Values joined by “and” are separate entries in the source; they are usually repeats but may differ in a detail not shown here. Equal values may be shown once. “Also recorded” adds a separate entry of the source.

B1: Enzyme A″: recombinant AADH of G. oxydans DSM No. 4025, amino acid sequence SEQ ID NO 7, plasmid p26C3 (protein)
chain: MKLTTLLQSSAALLVLGTIPALAQTAITDEMLANPPAGEWINYGQNQENYRHSPLTQITADNVGQLQLVWARGMEAGKIQVTPLVHDGVMYLANPGDVIQAIDAATGDLIWEHRRQLPNIATLNSFGEPTRGMALYGTNVYFVSWDNHLVALDTSTGQVVFDVDRGQGTDMVSNSSGPIVANGVIVAGSTCQYSPFGCFVSGHDSATGEELWRNTFIPRAGEEGDETWGNDYEARWMTGVWGQITYDPVGGLVHYGTSAVGPAAEIQRGTVGGSMYGTNTRFAVRPETGEIVWRHQTLPRDNWDQECTFEMMVVNVDVQPSAEMEGLHAINPDAATGERRVVTGVPCKNGTMWQFDAETGEFLWARDTSYQNLIESVDPDGLVHVNEDLVVTELEVAYEICPTFLGGRDWPSAALNPDTGIYFIPLNNACSGMTAVDQEFSSLDVYNVSLDYKLSPGSENMGRIDAIDISTGRTLWSAERYASNYAPVLSTGGGVLFNGGTDRYFRALSQETGETLWQTRLATVASGQAISYEIDGVQYVAIGRGGTSYGSNHNRALTERIDSTAIGSAIYVFALPQQ
modifications: Gluconobacter oxydans; SIGNAL (1)..(23)
B2: Enzyme B: recombinant AADH of G. oxydans DSM No. 4025, amino acid sequence SEQ ID NO 8, plasmid pSS31/pSSB103R (protein)
chain: MNPTTLLRTSAAVLLLTAPAAFAQVTPITDELLANPPAGEWINYGRNQENYRHSPLTQITADNVGQLQLVWARGMEAGAVQVTPMIHDGVMYLANPGDVIQALDAQTGDLIWEHRRQLPAVATLNAQGDRKRGVALYGTSLYFSSWDNHLIALDMETGQVVFDVERGSGEDGLTSNTTGPIVANGVIVAGSTCQYSPYGCFISGHDSATGEELWRNHFIPQPGEEGDETWGNDFEARWMTGVWGQITYDPVTNLVFYGSTGVGPASETQRGTPGGTLYGTNTRFAVRPDTGEIVWRHQTLPRDNWDQECTFEMMVANVDVQPSAEMEGLRAINPNAATGERRVLTGAPCKTGTMWSFDAASGEFLWARDTNYTNMIASIDETGLVTVNEDAVLKELDVEYDVCPTFLGGRDWSSAALNPDTGIYFLPLNNACYDIMAVDQEFSALDVYNTSATAKLAPGFENMGRIDAIDISTGRTLWSAERPAANYSPVLSTAGGVVFNGGTDRYFRALSQETGETLWQARLATVATGQAISYELDGVQYIAIGAGGLTYGTQLNAPLAEAIDSTSVGNAIYVFALPQ
modifications: Gluconobacter oxydans; SIGNAL (1)..(23)

Key:
[1] = Optimal pH, PMS-DCIP assay in buffers of various pH; type: biochemical
Experimental: The Enzymes A″ and B have a relatively wide pH range toward a lower pH, compared with the Enzymes A and A′.
The enzyme activity was assayed by the PMS-DCIP spectrophotometric assay using various pH buffers. The buffers were 50 mM Tris-malate-NaOH, pH 6.0, 6.5, 7.0, 7.5, 8.0 and 8.5; 50 mM glycine-NaOH, pH 9.0 and 9.5. The extinction coefficients of DCIP at pH 6.0, 6.5, 7.0, 7.5, 8.0, 8.5, 9.0 and 9.5 were taken as 10.8, 13.2, 14.5, 14.9, 15.0, 15.1, 15.1 and 15.1, respectively. […] The Enzymes A″ and B had relatively wide pH range toward lower pH, compared with the Enzymes A and A′.

[2] = pH stability, 3 hours at 25° C., residual activity by PMS-DCIP assay; type: physicochemical; details: relative to no incubation at pH 8.0
Experimental: Enzymes A, A′, A″ and B were incubated in buffers of various pH-values for 3 hours at 25° C. and the residual activities were assayed and expressed as relative values against that obtained by no incubation at pH 8.
Table 3 indicates the results of pH-stabilities of the enzymes. The enzyme (about 0.01 mg/ml) was incubated with 50 mM buffer containing 5% sucrose, 0.2 M NaCl, and 5 mM CaCl2 at 25° C. for 3 hours and assayed by PMS-DCIP spectrophotometric method. The buffers were Na-acetate, pH4 and 5, Tris-malate-NaOH, pH 6, 7 and 8, glycine-NaOH, pH 9 and 10. The values in the table are expressed as relative activity against that obtained by no incubation at pH 8.0.

[3] = Oxidation product of AADH clones by resting cell reaction followed by TLC analysis; type: cell-based, P. putida
Source text: Enzyme A gene was originally cloned as a cosmid clone of p24D4 which has about 25 kb insert in EcoRI site of pVK100. Then, it was further subcloned to use as an Enzyme A gene cassette. The 2.7 kb EcoRV fragment which includes ORF of Enzyme A gene with about 500 bp of non-coding regions at the both ends was excised from 3.4 kb NruI fragment, which was isolated from p24D4 in M13 mp18, and was ligated to HindIII site of pUC18 with HindIII linker ([…]). The resulting plasmid was designated pSSA202. Enzyme A gene cassette (2.7 kb HindIII fragment) was then inserted at HindIII site of pVK102 to produce pSSA102R. The plasmid pSSA102R was introduced into nalidixic acid resistant P. putida [ATCC 21812] by a conjugal mating method as described in Example 1-(1). The transconjugant of P. putida carrying pSSA102R was selected on MB agar medium containing 50 μg/ml nalidixic acid and 10 μg/ml tetracycline (MNT agar medium) and subjected to a mini-resting cell reaction. […] The reaction mixture was assayed with TLC and 2KGA was identified as the product, while no 2KGA was observed by the same resting cell reaction with the host, nalidixic acid resistant P. putida [ATCC 21812].

[4] = Products of enzyme reactions with purified enzymes, identified by TLC and/or HPLC; type: biochemical
Experimental: Products formed from a substrate in the reaction with Enzyme A, Enzyme A′, Enzyme A″ or Enzyme B were analyzed by thin layer chromatography (TLC) and/or high performance liquid chromatography (HPLC) with authentic compounds. […] Similarly to the reactivity for L-sorbosone, D-glucosone can be converted to 2KD by all of above mentioned AADHs. A group enzymes can produce 2KD from D-fructose whose possible direct product is D-glucosone. […]
Enzyme reactions with purified Enzyme A or Enzyme B and various substrates were performed as described in Example 11.

[5] = Thermal stability, 5 minutes, residual activity by PMS-DCIP assay; type: physicochemical
Experimental: Table 4 indicates the results of thermal-stabilities of the enzymes. The enzyme (about 0.05 mg/ml) in 25 mM HEPES buffer, pH 7.5, containing 5% sucrose, 0.2 M NaCl, and 5 mM CaCl2 was incubated at temperature indicated in the table (4-60° C.) for 5 minutes, cooled in ice bath and assayed by PMS-DCIP spectrophotometric method. Remaining activity was expressed as relative activity against that obtained by 4° C. incubation.

[6] = 4° C. for 5 minutes (reference)
[7] = 20° C. for 5 minutes, relative to 4° C. incubation
[8] = 30° C. for 5 minutes, relative to 4° C. incubation
[9] = 40° C. for 5 minutes, relative to 4° C. incubation
[10] = 50° C. for 5 minutes, relative to 4° C. incubation
[11] = 60° C. for 5 minutes, relative to 4° C. incubation

Molecule	Relative activity (optimal pH) ([1]; assay pH 6.0, pH 8.0 = 100)	Relative activity (optimal pH) ([1]; assay pH 6.5, pH 8.0 = 100)	Relative activity (optimal pH) ([1]; assay pH 7.0, pH 8.0 = 100)	Relative activity (optimal pH) ([1]; assay pH 7.5, pH 8.0 = 100)	Relative activity (optimal pH) ([1]; assay pH 8.0)	Relative activity (optimal pH) ([1]; assay pH 8.5, pH 8.0 = 100)	Relative activity (optimal pH) ([1]; assay pH 9.0, pH 8.0 = 100)	Relative activity (optimal pH) ([1]; assay pH 9.5, pH 8.0 = 100)	Relative activity (pH stability) ([2]; incubated at pH 4.0, 3 hours)	Relative activity (pH stability) ([2]; incubated at pH 5.0, 3 hours)	Relative activity (pH stability) ([2]; incubated at pH 6.0, 3 hours)	Relative activity (pH stability) ([2]; incubated at pH 7.0, 3 hours)	Relative activity (pH stability) ([2]; incubated at pH 8.0, 3 hours)	Relative activity (pH stability) ([2]; incubated at pH 9.0, 3 hours)	Relative activity (pH stability) ([2]; incubated at pH 10.0, 3 hours)	Relative activity (pH stability) ([2]; incubated at pH 11.0, 3 hours)	Oxidation product of D-sorbitol [3]	Oxidation product of L-sorbosone [3]	Product ([4]; substrate D-Mannitol)	Product ([4]; substrate D-Sorbitol)	other results
B1	35.0%	57.3%	74.8%	90.0%	100.0%	85.6%	46.5%	23.9%	6.2%	77.9%	105.8%	100.9%	99.0%	100.9%	104.0%	79.2%	mainly D-glucose	*4Oxidation product of L-sorbosone by Enzymes A, A′, A″, B, and [A and B] was 2KGA.	D-mannose	D-glucose with L-gulose	Oxidation product of L-sorbose [3]: *1Oxidation product of L-sorbose by Enzymes A, A′, A″, and [A and B] was 2KGA.; Product ([4]; substrate D-Fructose): 2-keto-D-gluconic acid; Product ([4]; substrate L-Sorbose): L-sorbosone with 2KGA; Product ([4]; substrate L-Sorbosone): 2KGA; Relative activity (thermal stability) [5, 6]: 100.0%; Relative activity (thermal stability) [5, 7]: 96.0%; Relative activity (thermal stability) [5, 8]: 86.1%; Relative activity (thermal stability) [5, 9]: 72.8%; Relative activity (thermal stability) [5, 10]: 26.6%; Relative activity (thermal stability) [5, 11]: 13.3%
B2	21.0%	51.6%	61.6%	75.3%	100.0%	62.2%	8.0%	0.0%	25.2%	56.1%	100.9%	101.9%	114.0%	101.9%	85.5%	70.1%	L-sorbose	*4Oxidation product of L-sorbosone by Enzymes A, A′, A″, B, and [A and B] was 2KGA.	D-Fructose	L-Sorbose	Oxidation product of D-glucose [3]: *2Oxidation product of D-glucose by Enzyme B, and Enzyems [A and B] was D-gluconic acid.; Product ([4]; substrate D-Gluconic acid): 5-keto-D-gluconic acid and 5-Keto-D-gluconic acid; Product ([4]; substrate D-Glucose): D-gluconate; also recorded: D-Gluconic acid; Product ([4]; substrate D-Mannoic acid): 5-keto-D-mannoic acid and 5-Keto-D-mannoic acid; Product ([4]; substrate Glycerol): Dihydroxyacetone; Product ([4]; substrate L-Idose): L-Idonic acid; Product ([4]; substrate L-Sorbosone): 2KGA; Relative activity (thermal stability) [5, 6]: 100.0%; Relative activity (thermal stability) [5, 7]: 97.2%; Relative activity (thermal stability) [5, 8]: 95.4%; Relative activity (thermal stability) [5, 9]: 84.6%; Relative activity (thermal stability) [5, 10]: 29.2%; Relative activity (thermal stability) [5, 11]: 0.0%
